Patent publication US11859229B2, “Polyvinyl alcohol-degrading enzyme and process for producing the same” (Hayashibara Co., Ltd., priority 2017, dated 2024)

Legend:
Format in all cases: biochemical
[1] = Assay for PVA-oxidizing activity (hydrogen peroxide formation, titanium reagent, A410)
Experimental: As shown in the above (1), the PVA-degrading enzyme of the present invention has an PVA-oxidizing activity, i.e., an activity of catalyzing the reaction of oxidizing PVA as substrate and forming hydrogen peroxide. For example, the PVA-oxidizing activity can be measured by the following method.
To 0.5 mL of a substrate solution prepared by dissolving PVA (Reagent grade polyvinyl alcohol, polymerization degree: 2,000, Nacalai Tesque Inc., Kyoto, Japan) into 100 mM sodium phosphate buffer (pH 7.0) to give a concentration of 2% (w/v), 15 µL of 2% (w/v) of sodium azide solution was added, and then 0.5 mL of an enzyme solution is further added and reacted with shaking at 27° C. for 60 min. After the 60 min-reaction, the reaction was stopped by mixing 0.32 mL of the reaction mixture to 0.8 mL of a titanium reagent, and the yellow color, produced by reacting hydrogen peroxide formed by the enzyme reaction and the titanium reagent, was measured by measuring the absorbance at 410 nm (A410) as an index. Separately, the enzyme solution was added to the substrate solution, and the resulting mixture is immediately mixed with the titanium reagent. The resulting mixture was similarly measured its color and the value was used as the value at the reaction zero minutes. Then, the amount of the formed hydrogen peroxide is determined and the PVA-oxidizing activity is calculated based on the following formula. It is known that the absorbance at 410 nm (A410) increases by “1” when 3.65 […]mole/mL of hydrogen peroxide is formed. Therefore, in the following Formula 1, the coefficient of “3.65” has been multiplied. One unit of the PVA-oxidizing activity is defined as the amount of enzyme that forms 1 […]mole of hydrogen peroxide per min under the above conditions. Titanium reagent is prepared by diluting 5% titanium sulfate (IV) solution, commercialized by Nacalai Tesque Inc., Kyoto, Japan, 25-fold with 10% (w/w) sulfuric acid.

[2] = Thermal stability and pH stability (residual PVA-oxidizing activity); conditions: 10 mM phosphate buffer, pH 7.0, 60 min
Experimental: To 0.5 mL of a substrate solution prepared by dissolving PVA (Reagent grade polyvinyl alcohol, polymerization degree: 2,000, Nacalai Tesque Inc., Kyoto, Japan) into 100 mM sodium phosphate buffer (pH 7.0) to give a concentration of 2% (w/v), 15 µL of 2% (w/v) of sodium azide solution was added, and then 0.5 mL of an enzyme solution is further added and reacted with shaking at 27° C. for 60 min. After the 60 min-reaction, the reaction was stopped by mixing 0.32 mL of the reaction mixture to 0.8 mL of a titanium reagent, and the yellow color, produced by reacting hydrogen peroxide formed by the enzyme reaction and the titanium reagent, was measured by measuring the absorbance at 410 nm (A410) as an index. Separately, the enzyme solution was added to the substrate solution, and the resulting mixture is immediately mixed with the titanium reagent. The resulting mixture was similarly measured its color and the value was used as the value at the reaction zero minutes. Then, the amount of the formed hydrogen peroxide is determined and the PVA-oxidizing activity is calculated based on the following formula. It is known that the absorbance at 410 nm (A410) increases by “1” when 3.65 […]mole/mL of hydrogen peroxide is formed. […]
In the two purified preparations of the PVA-degrading enzyme, PVA-A was used for investigating thermal stability and pH stability using PVA-oxidizing activity as an index according to the assay method. Thermal stability was determined by the steps of incubating the enzyme solution (in 10 mM phosphate buffer, pH 7.0) at various temperature for 60 min, cooling in water, and then measuring the residual enzyme activity. pH Stability was determined by the steps of incubating the enzyme solution in 100 mM buffer with different pH at 4° C. for 24 hours, adjusting pH to 7.0, and then measuring the residual enzyme activity. […] In FIG. 6, symbols, “●”, “▪”, “▴” and “♦”, mean values measured by using acetate buffer, phosphate buffer, glycine-NaOH buffer, and potassium chloride-NaOH buffer, respectively, for pH control.

[3] = Gel filtration HPLC of PVA degradation products (molecular weight); conditions: 10 units of the enzyme on 1% (w/v) PVA for 20 hours; substrate PVA Mw about 10.6×10^4
Experimental: While, the molecular weight of the degraded product of PVA was analyzed by conventional gel filtration HPLC for a reaction mixture obtained by allowing 10 units of the enzyme to act on 1% (w/v) PVA solution for 20 hours. Gel filtration HPLC was carried out using the following conditions: • Column: “TSKgel […]-4000” (manufactured by Tosoh Corporation, Tokyo, Japan) • (Two columns were tandemly connected.); • Eluent: 50 mM phosphate buffer eluent (pH7.0); • Column temperature: 40° C.; • Flow rate: 0.5 mL/min; • Detector: “RID-20A”, a differential refractometer, manufactured by Shimadzu Corporation, Kyoto, Japan.
The molecular weights of PVA and the degradation products of PVA were respectively calculated based on a calibration curve of molecular weights prepared by subjecting pullulan standards for molecular weight measurement, commercialized by Hayashibara Co., Ltd., Okayama, Japan, to gel filtration HPLC in the same manner. The gel filtration HPLC chromatogram of the reaction mixture (symbol “b” in FIG. 11) is shown in FIG. 11 in comparison with that of PVA used as a substrate (symbol “a” in FIG. 11).

[4] = PVA-degrading (viscosity-reducing) activity; conditions: at each purification step
Experimental: While, activity as a PVA-degrading enzyme can be measured, for example, by measuring the viscosity reduction of a PVA solution, caused by the degradation of PVA, as an index using the following method.
To 0.5 mL of a substrate solution prepared by dissolving PVA (Reagent grade polyvinyl alcohol, polymerization degree: 2,000, Nacalai Tesque Inc., Kyoto, Japan) into 100 mM sodium phosphate buffer (pH 7.0) to give a concentration of 2% (w/v), 15 µL of 2% (w/v) of sodium azide solution was added, and then 0.5 mL of an enzyme solution is further added and reacted with shaking at 27° C. for 60 min. After the reaction, 0.6 mL of the reaction mixture was withdrawn and its viscosity was measured using a Cone plate-type viscometer (“DV-II+Pro”, Brookfield Co., Ltd.) at 30° C. Separately, the enzyme solution was added to the substrate solution and the viscosity was measured immediately, and the viscosity was used as that at zero-min reaction. The PVA-degrading activity was calculated based on the following formula. One unit of the PVA-degrading activity was defined as the amount of enzyme that causes a 10%-reduction of relative viscosity per min under the above conditions. […]

B1: PVA-A: purified PVA-degrading hybrid enzyme from Pseudomonas sp. VT1B strain, amino acid sequence of SEQ ID NO: 2 (protein, listed as Pseudomonas sp.)
chain: AENWPMFGKNYENTRATSDTQISTANISTLNVVRRTTDGGITGTPTVVDGVAYYSDFSGYVKAVRVSDGVVLWRVRPQTTMLSPSPFVTADTVYVAGNNSYVYALNRANGAVRWTTQIETSPNSRISSSPIVVGNILIIGTGSYQVFLPATPMFRGRVAFLNATTGAILPYSTNMCPSASCGGGISVWSTAAIDESTRTGYIGTGQAYRDPAGPYSDALVAFNIDTGAIRWARQFLANDVYQLGGTLRYDYDVGAAPNLFVANGQRMVGVGGKDGTYRAFNRDTGAPIWNTPVGRGSAIGGVMQSTAYGDGRIYVTSNTSTIGSGRNDPVPATAEASALDAATGAPVWIRQLDAGGFGGVAYANGLMYASTWDGRLRVFNAANGNIVREVQVSPSRGAYVPAPTDGFPNGSAGGPVVYGNRVLMGYGWTWVLNINGGLTTMEATVGGGASQTVTLASSSDTYVQSGTPTTNYAYDVNLLARLADAEGLTRASFLQFPLTAVPAGTITSARLRLYGRHDAPTGTGQSVSVWPGTKTTTWSGPNVTYNNSSTETGVDFYATSSIATATVGITPQYYEWNVTDYVASRRSLGHATFGVAVNSAHQYRVTLNSADNTANRPELVVTVSGGTGSQLPGSCPSGFTARAGVNQGFMHNGVARGFVLNVPANVSTPRPVFVSLTGSVESTNENLGARGGAGALNNDGFLVIGPVRRCAGQDPNGAGTSVNGGTCNQAGTGGWNWNPWNEGRVFAAAGDPWKTAEGPDSQFLEAVVRCVAASYPVDSTRMYLGGISSGATMTHRALLFNSDFWAGGLPLSGEWYVSQDNGTAYPGADEFAARRQAVINNPTKIFQGRVGPLPLPATQSPMIVISMWGGANDIWYCGSTLCADYRPSTQAASNYFSALPNVVHVACSSSHGHQWPTQNRAAFNTWAATTLASHPKGTPASSFVLPPPPAGYSCRVGRYTDHYSGT
Specific activity ([1]; PVA-oxidizing activity per mg protein at each purification step): 3.2 U/mg
Total Activity (PVA-oxidizing activity) ([1]; at each purification step, from 4 L culture supernatant): 5.4 U
Thermal stability of PVA-oxidizing activity [2]: up to 45 °C
weight average molecular weight (Mw) of the degraded products of PVA [3]: about 4,400
Total PVA-Degrading Activity (Viscosity-reducing Activity) [4]: 8.2 U
